Reference: patent US20250000991A1, “NECTIN-4 ANTIBODIES AND ANTIBODY-DRUG CONJUGATES” (Eli Lilly and Company, priority 2023, published 2025)

Legend:
MDA-MB-468 xenograft = test: Tumor xenograft, moderate nectin-4 expression; format: in vivo, NSG mice; conditions: MDAMB468 xenograft, single dose 2 mg/kg, day 71
Experimental: In a separate study, female NSG mice between 5-6 weeks of age were injected subcutaneously with MDA-MB-468 cells with moderate Nectin-4 expression. When tumors reached approximately 150-250 mm^3; animals were matched by tumor volume into treatment or control groups and dosing initiated (Day 0, n=8 per group). The test articles were given at a single dose (2 mg/kg) formulated with 5% Dextrose. Tumors were measured biweekly until Day 71.
In both models, a 2 mg/kg single dose treatment of either the nectin-4 ADCs (exemplified herein with each of Abs1-8 conjugated as in Formula XI, and with a DAR of 8) or benchmark enfortumab ADC (enfortumab conjugated with Formula XI, and with a DAR of 8) was used. Tumor growth was measured at day 40 for UMUC3 Nectin-4 clone F7 and day 71 for MDAMB468 xenografts.

[1] = test system: UM-UC-3 Nectin4 clone F7 xenograft; test: Tumor xenograft, high nectin-4 expression; format: in vivo, mice (nu/nu); conditions: UMUC3 Nectin-4 clone F7 xenograft, single dose 2 mg/kg, day 40
Experimental: In order to test the efficacy of the nectin-4 ADCs of the present disclosure, which have effector null mutations in the Fc region, and to compare to the enfortumab antibody, which has wildtype Fc and in an ADC with the same payload background as the ones of this disclosure, two tumor xenograft models with either high or moderate nectin-4 expression were tested as described. Immune compromised female mice (nu/nu) between 5-8 weeks of age with weight 18-20 grams were implanted unilaterally on the right flank with UM-UC-3 Nectin4 clone F7 cells with high nectin-4 expression. […] The test articles were given at a single dose (2 mg/kg) formulated with 5% dextrose. Tumors were measured biweekly until Day 40.

B1: Ab5 ADC: Ab5 conjugated as in Formula XI, and with a DAR of 8 (conjugate)
heavy: QVQLVQSGAEVKKPGASVKVSCKASGYTFTSYYVHWVRQAPGQGLEWMGIINPSIISTSYAQKFQARVTMTRDTSTSTVYMELSSLRSEDTAVYYCARGLNFDAFDIWGQGTLVTVSSASTKGPSVFPLAPSSKSTSGGTAALGCLVKDYFPEPVTVSWNSGALTSGVHTFPAVLQSSGLYSLSSVVTVPSSSLGTQTYICNVNHKPSNTKVDKRVEPKSCDKTHTCPPCPAPEAAGGPSVFLFPPKPKDTLMISRTPEVTCVVVSVSHEDPEVKFNWYVDGVEVHNAKTKPREEQYNSTYRVVSVLTVLHQDWLNGKEYKCKVSNKALPAPIEKTISKAKGQPREPQVYTLPPSREEMTKNQVSLTCLVKGFYPSDIAVEWESNGQPENNYKTTPPVLDSDGSFFLYSKLTVDKSRWQQGNVFSCSVMHEALHNHYTQKSLSLSPGK
light: DIQLTQSPSFLSASVGDRVTITCRASQGISSYLAWYQQKPGKAPKLLIYAASTLQSGVPSRFSGSGSGTEFTLTISSLQPEDFATYYCQQLNNYPFTFGQGTKVEIKRTVAAPSVFIFPPSDEQLKSGTASVVCLLNNFYPREAKVQWKVDNALQSGNSQESVTEQDSKDSTYSLSSTLTLSKADYEKHKVYACEVTHQGLSSPVTKSFNRGEC
MDA-MB-468 xenograft
  Mean tumor volume: 220.38 mm^3
[1]
  Mean tumor volume: 632.99 mm^3

B2: Ab6 ADC: Ab6 conjugated as in Formula XI, and with a DAR of 8 (conjugate)
heavy: QVQLVQSGAEVKKPGASVKVSCKASGYTFTGYYMHWVRQAPGQGLEWMGIINPSGGSTTYAQKFQGRVTMTRDTSTSTVYMELSSLRSEDTAVYYCARGRLGTYFDYWGQGTLVTVSSASTKGPSVFPLAPSSKSTSGGTAALGCLVKDYFPEPVTVSWNSGALTSGVHTFPAVLQSSGLYSLSSVVTVPSSSLGTQTYICNVNHKPSNTKVDKRVEPKSCDKTHTCPPCPAPEAAGGPSVFLFPPKPKDTLMISRTPEVTCVVVSVSHEDPEVKFNWYVDGVEVHNAKTKPREEQYNSTYRVVSVLTVLHQDWLNGKEYKCKVSNKALPAPIEKTISKAKGQPREPQVYTLPPSREEMTKNQVSLTCLVKGFYPSDIAVEWESNGQPENNYKTTPPVLDSDGSFFLYSKLTVDKSRWQQGNVFSCSVMHEALHNHYTQKSLSLSPGK
light: SYVLTQPPSVSVAPGQTARITCGGNNIGSKSVHWYQQKPGQAPVLVVYDDSDRPSGIPERFSGSNSGNTATLTISRVEAGDEADYYCQVWDRSSDQVVFGGGTKLTVLGQPKAAPSVTLFPPSSEELQANKATLVCLISDFYPGAVTVAWKADSSPVKAGVETTTPSKQSNNKYAASSYLSLTPEQWKSHRSYSCQVTHEGSTVEKTVAPTECS
MDA-MB-468 xenograft
  Mean tumor volume: 304.9 mm^3
[1]
  Mean tumor volume: 866.94 mm^3
